Laboratory results reported in paper PMC9855569, “Construction of Bi-Enzyme Self-Assembly Clusters Based on SpyCatcher/SpyTag for the Efficient Biosynthesis of (R)-Ethyl 2-hydroxy-4-phenylbutyrate” (Biomolecules, 2023).

Substrate: CCOC(=O)C(=O)CCc1ccccc1
Assay: purified protein
Format: biochemical, Lodderomyces parapsilosis
Settings: apparent constant, free enzymes (CpCR with GDH), NADPH co-substrate, pH 7.0, 30 °C, OPBE 10-50 mM

B1: CpCR (Lodderomyces parapsilosis) (protein)
chain: MTKAVPDKFQGFAVSDPKNWNRPKLASYERKQINPHDVVLKNEVCGLCYSDIHTLSAGWQPLQRDNLVVGHEIIGEVIAVGDEVTEFKVGDRVGIGAASSSCRSCQRCDSDNEQYCKQGAATYNSKDVRSNNYVTQGGYSSHSIADEKFVFAIPEDLPSSYGAPLMCAGITVFSPLIRNLGLDARGKNVGIIGIGGLGHLALQFANAMGANVTAFSRSSSKKEQAMKLGAHDFVATGEDKTWYKNYDDHFDFILNCASGIDGLNLSEYLSTLKVDKKFVSVGLPPSEDKFEVSPFTFLQQGASFGSSLLGSKTEVKEMLNLAAKHNVRPMIEEVPISEENCAKALDRCHAGDVRYRFVFTDFDKAFKA
notes: full length, 6xHis tag, recombinant in E. coli BL21(DE3), 41 kDa; free (unassembled) enzyme, in the free bi-enzyme system with GDH
Km: 23.94 mM | kcat: 1.76 s⁻¹ | kcat/Km: 74 M⁻¹ s⁻¹
